Columns and labels:
[1] = target: mMOR-1 (Mus musculus), P42866; test: competition; settings: modification not given
[2] = target: T1, 6TM/E11 mu opioid receptor site 6TM variant (Mus musculus), P42866; test: competition; settings: modification not given
T1 chain: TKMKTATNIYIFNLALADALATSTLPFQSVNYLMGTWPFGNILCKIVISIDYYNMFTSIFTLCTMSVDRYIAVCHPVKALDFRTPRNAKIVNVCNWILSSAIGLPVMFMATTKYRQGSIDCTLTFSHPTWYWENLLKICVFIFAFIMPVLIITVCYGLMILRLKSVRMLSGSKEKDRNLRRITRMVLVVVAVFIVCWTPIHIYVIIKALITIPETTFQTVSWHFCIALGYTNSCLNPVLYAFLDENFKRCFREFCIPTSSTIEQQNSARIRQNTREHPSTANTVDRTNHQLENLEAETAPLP

mMOR-1 (Mus musculus), P42866, sequence (P42866 whole entry): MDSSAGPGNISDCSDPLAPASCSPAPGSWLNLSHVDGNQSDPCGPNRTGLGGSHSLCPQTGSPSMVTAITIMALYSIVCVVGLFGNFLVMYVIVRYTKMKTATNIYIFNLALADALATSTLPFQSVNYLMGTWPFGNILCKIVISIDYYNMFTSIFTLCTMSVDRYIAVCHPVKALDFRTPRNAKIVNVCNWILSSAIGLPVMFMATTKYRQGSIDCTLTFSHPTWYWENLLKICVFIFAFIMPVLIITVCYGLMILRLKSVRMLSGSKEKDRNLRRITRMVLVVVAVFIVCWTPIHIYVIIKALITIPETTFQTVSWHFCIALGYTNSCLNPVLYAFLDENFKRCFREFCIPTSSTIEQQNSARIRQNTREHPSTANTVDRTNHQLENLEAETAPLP

## YAFGYPS [Dermorphin]
[1]
  Ki: 4 nM
[2]
  Ki: > 500 nM
